For one series, the target named is T1, YxiN S108C/S229C (UniProt P42305 1-479, C61A;C267A;S108C;S229C).
T1 sequence: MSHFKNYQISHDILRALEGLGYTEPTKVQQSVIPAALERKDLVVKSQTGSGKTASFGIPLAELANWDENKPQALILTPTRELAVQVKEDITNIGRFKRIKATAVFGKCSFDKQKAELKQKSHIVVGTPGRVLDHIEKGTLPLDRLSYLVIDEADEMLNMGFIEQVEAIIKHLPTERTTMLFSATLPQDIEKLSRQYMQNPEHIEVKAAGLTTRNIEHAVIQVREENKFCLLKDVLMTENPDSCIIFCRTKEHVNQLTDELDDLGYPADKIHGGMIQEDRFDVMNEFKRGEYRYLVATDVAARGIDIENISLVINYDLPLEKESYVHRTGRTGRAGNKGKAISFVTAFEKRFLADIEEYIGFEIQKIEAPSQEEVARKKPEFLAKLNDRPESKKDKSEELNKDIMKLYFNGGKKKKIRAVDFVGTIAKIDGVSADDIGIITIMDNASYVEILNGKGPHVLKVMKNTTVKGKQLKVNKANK
Put plainly: smFRET.

Series [1] has as its target T2, YxiN S108C/N444C (UniProt P42305 1-479, C61A;C267A;S108C;N444C).
T2 sequence: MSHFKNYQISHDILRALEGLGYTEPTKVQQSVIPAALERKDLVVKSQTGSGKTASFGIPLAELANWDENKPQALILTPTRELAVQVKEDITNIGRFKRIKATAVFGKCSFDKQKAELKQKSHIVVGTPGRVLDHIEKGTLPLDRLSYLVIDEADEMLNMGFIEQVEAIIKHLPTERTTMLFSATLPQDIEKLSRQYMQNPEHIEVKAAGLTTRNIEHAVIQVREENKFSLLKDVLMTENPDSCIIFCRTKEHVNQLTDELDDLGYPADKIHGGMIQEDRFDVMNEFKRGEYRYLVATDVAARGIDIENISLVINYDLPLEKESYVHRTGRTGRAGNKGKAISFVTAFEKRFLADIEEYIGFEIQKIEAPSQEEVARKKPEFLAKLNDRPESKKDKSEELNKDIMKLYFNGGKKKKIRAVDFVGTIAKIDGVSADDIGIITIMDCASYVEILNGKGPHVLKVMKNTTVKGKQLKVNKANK
Put plainly: smFRET.

The target of series [2] is T2, YxiN S108C/N444C. Put plainly: fluorescence anisotropy. A general note: Fluorescence polarisation rises when a labelled molecule tumbles more slowly, as on binding a larger partner.
The target of series [3] is T3, YxiN A115C/S229C biotinylated (UniProt P42305 1-479, C61A;C267A;A115C;S229C).
T3 sequence: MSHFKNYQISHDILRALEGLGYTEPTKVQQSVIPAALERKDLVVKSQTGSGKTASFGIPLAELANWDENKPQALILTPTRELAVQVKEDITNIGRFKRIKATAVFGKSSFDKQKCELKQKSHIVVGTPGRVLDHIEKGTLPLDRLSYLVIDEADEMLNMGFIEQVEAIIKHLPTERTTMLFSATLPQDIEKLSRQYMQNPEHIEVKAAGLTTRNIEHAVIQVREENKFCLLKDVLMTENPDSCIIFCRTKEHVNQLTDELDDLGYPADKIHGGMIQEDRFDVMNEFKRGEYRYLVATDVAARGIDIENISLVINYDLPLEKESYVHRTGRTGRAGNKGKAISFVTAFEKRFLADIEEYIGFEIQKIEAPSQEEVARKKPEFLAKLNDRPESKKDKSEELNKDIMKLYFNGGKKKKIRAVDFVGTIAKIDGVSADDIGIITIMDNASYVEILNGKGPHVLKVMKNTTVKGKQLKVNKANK
Put plainly: smFRET.

A further series addresses T4, YxiN S108C/N464C (UniProt P42305 1-479, C61A;C267A;S108C;N464C).
T4 sequence: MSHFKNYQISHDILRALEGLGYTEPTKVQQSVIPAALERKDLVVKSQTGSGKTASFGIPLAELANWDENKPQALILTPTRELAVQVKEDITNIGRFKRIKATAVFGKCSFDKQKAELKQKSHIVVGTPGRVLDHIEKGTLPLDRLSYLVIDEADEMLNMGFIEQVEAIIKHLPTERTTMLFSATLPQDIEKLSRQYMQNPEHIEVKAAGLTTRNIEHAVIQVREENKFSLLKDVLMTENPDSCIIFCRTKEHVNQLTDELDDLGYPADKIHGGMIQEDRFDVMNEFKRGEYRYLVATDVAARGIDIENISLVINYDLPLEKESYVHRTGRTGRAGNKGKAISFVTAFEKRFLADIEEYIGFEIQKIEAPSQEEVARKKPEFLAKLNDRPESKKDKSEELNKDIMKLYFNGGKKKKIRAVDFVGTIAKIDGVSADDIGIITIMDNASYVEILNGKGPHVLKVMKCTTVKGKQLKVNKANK
The series can be described thus: smFRET.

Another series addresses T5, YxiN S108C/D429C (UniProt P42305 1-479, C61A;C267A;S108C;D429C).
T5 sequence: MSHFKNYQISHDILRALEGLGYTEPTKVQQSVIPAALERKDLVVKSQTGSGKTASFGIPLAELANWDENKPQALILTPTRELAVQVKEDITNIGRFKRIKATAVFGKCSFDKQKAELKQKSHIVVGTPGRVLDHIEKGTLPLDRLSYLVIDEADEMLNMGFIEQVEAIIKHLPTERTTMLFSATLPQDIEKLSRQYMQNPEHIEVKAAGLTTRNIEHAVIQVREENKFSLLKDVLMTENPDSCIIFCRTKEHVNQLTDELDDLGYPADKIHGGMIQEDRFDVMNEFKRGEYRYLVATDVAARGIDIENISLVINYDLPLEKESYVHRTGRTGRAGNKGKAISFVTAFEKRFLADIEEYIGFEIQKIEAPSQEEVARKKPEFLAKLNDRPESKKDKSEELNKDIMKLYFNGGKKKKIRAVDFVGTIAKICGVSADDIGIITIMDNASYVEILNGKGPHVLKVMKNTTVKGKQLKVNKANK
The series can be described thus: smFRET.

On to UGGGCUGUUCGCCCAU (structured_RNA) [32merHairpin], for which the binding result with YxiN S108C/S229C and with YxiN S108C/N444C [1] was “binds” throughout.
For orientation: Kd means the equilibrium constant for the complex coming apart. For the molecule CGAGGUCCCAAGGGUUGGGCUGUUCGCCCAUU (structured_RNA) [32mer (FAM)], binding in the series with YxiN S108C/N444C [2] was put at a Kd of 170 nM.
On to CGAGGUCCCAAGGGUUGGGCUGUUCGCCCAUU (structured_RNA) [32mer], for which the binding result (in series [3]; with YxiN S108C/N464C; with YxiN S108C/D429C; with YxiN S108C/S229C) was “binds” throughout.

These data come from PMC5389509.
